Measurements published in publication PMC12483278, “The viral BCL2 protein BHRF1 of Epstein–Barr virus promotes AIM2 inflammasome activation to facilitate lytic replication” (PLOS Pathogens, 2025).

Target: T1, GST-AIM2 full-length (UniProt O14862 1-343)
T1 construct: also called GST-AIM2 WT; GST-tagged AIM2; source: HEK293T, transfected, in lysate
T1 sequence (looked up): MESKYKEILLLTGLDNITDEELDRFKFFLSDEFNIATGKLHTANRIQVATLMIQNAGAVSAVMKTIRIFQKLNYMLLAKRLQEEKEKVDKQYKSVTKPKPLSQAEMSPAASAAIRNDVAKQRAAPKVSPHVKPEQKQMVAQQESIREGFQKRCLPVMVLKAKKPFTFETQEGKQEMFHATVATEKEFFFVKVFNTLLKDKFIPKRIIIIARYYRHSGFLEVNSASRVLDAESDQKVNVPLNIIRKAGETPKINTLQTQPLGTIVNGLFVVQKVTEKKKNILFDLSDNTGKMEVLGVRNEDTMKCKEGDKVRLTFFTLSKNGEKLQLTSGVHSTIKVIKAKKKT
Assay: pull-down; purified GST-AIM2, Flag-ASC-His and GFP-BHRF1-His mixed and incubated in the absence or presence of purified HSV-1 dsDNA overnight at 4 °C; GST-affinity beads, western blotting
Conditions: both partners purified

B1: GFP-BHRF1-His (natural protein)
chain: MAYSTREILLALCIRDSRVHGNGTLHPVLELAARETPLRLSPEDTVVLRYHVLLEEIIERNSETFTETWNRFITHTEHVDLDFNSVFLEIFHRGDPSLGRALAWMAWCMHACRTLCCNQSTPYYVVDLSVRGMLEASEGLDGWIHQQGGWSTLIEDNIPGSRRFSWTLFLAGLTLSLLVICSYLFISRGRH
notes: also called purified BHRF1 protein
binding result: binds
